Tested on: DDR receptors
Test: Effect of other agents on DDR activity / collagen-induced DDR tyrosine phosphorylation
Format: cell-based
Settings: collagen-associated molecules

B1: decorin: collagen-associated molecule (protein, UniProt P07585 31-359, looked up)
Decorin: DEASGIGPEVPDDRDFEPSLGPVCPFRCQCHLRVVQCSDLGLDKVPKDLPPDTTLLDLQNNKITEIKDGDFKNLKNLHALILVNNKISKVSPGAFTPLVKLERLYLSKNQLKELPEKMPKTLQELRAHENEITKVRKVTFNGLNQMIVIELGTNPLKSSGIENGAFQGMKKLSYIRIADTNITSIPQGLPPSLTELHLDGNKISRVDAASLKGLNNLAKLGLSFNSISAVDNGSLANTPHLRELHLDNNKLTRVPGGLAEHKYIQVVYLHNNNISVVGSSDFCPPGHNTKKASYSGVSLFSNPVQYWEIQPSTFRCVYVRSAIQLGNYK
- effect on DDR activity: no effect

Source: US20030070184A1, “LIGANDS FOR DISCOIDIN DOMAIN RECEPTOR TYROSINE KINASES AND COMPLEXES THEREOF” (priority 1999, published 2003)
